According to publication PMC10746276:

Biological target: CsrA-His6 (Escherichia coli) (UniProt P69913)
Experiment: EMSA
Conditions: EMSA: 0.1 nM RNA, 10 mM MgCl2, 100 mM KCl, 32.5 ng yeast RNA, 20 mM DTT, 7.5% glycerol, 4 U SUPERasin, 30 min 37 C (pH not given), footprint: 2 nM RNA

CsrA-His6 (Escherichia coli), sequence (P69913 whole entry): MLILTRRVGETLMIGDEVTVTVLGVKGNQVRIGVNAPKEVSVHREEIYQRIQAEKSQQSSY

yqjD leader WT, full-length (yqjC-yqjD intercistronic RNA)
Kd: 8 nM | Kd (second shifted species at 30 nM CsrA and higher): 9 nM

yqjD leader full-length, BS4 mutant (CUGGA to GUGGA)
Kd: 25 nM
